Earlier results as cited in patent US8071839B2, “Transgenic mouse comprising a polynucleotide encoding human or humanized C5aR and methods of production and use” (G2 Inflammation Pty Ltd, priority 2003, dated 2011).

B1: murine C5a: mouse C5a, ligand that binds human C5aR (protein, UniProt P06684 679-755, looked up)
C5a anaphylatoxin: NLHLLRQKIEEQAAKYKHSVPKKCCYDGARVNFYETCEERVARVTIGPLCIRAFNECCTIANKIRKESPHKPVQLGR
modifications: C5a anaphylatoxin
B2: C5a: anaphylatoxin fragment of complement protein C5, natural ligand of C5aR (protein, UniProt P01031 678-751, looked up)
C5a anaphylatoxin: TLQKKIEEIAAKYKHSVVKKCCYDGACVNNDETCEQRAARISLGPRCIKAFTECCVVASQLRANISHKDMQLGR
modifications: C5a anaphylatoxin
notes: anaphylatoxin fragment of complement protein C5, natural ligand of C5aR

Columns and labels:
[1] = molecular target: T1, C5aR (Homo sapiens, UniProt P21730)
T1 sequence (P21730 1-350): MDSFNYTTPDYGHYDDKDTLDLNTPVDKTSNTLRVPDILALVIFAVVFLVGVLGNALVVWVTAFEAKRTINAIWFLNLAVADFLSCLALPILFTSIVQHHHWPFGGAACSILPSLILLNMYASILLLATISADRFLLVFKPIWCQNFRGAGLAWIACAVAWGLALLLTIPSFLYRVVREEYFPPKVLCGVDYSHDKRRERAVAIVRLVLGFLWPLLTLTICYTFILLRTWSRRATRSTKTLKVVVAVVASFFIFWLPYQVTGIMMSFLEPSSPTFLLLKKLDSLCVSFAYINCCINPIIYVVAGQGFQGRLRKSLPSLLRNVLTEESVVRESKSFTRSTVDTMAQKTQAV

[2] = molecular target: T1, C5aR; details: read-out: Kd of C5aR for C5a

| Molecule | binding affinity for human C5aR [1] | Kd [2] |
| --- | --- | --- |
| B1 | high affinity | – |
| B2 | – | ~1 nM |
